Test results taken from US20190135915A1 (SYNTIMMUNE, published 2019).
Several values for one entry are separate records, joined by “and”; a condition that tells them apart may be missing. Equal entries are not always repeated.

Tests used:
[1] = molecular target: T1, FcRn (analyte in the Biacore T200 study) (human, UniProt P55899 24-297; P61769 21-119, limits assumed); assay: SPR Biacore T200, antibody amine-coupled to CM5, FcRn analyte, 1:1 model; pH not stated
T1 construct: also called human FcRn
Experimental: (§1) Antibodies were immobilized onto a Series S CM5 sensor chip surface using standard amine coupling chemistry and analyte (FcRn) flowed over the surface. A 2-fold dilution range was selected from 50-0.01 nM FcRn. The association phase of FcRn analyte was monitored for 450 seconds, and dissociation was initially measured for either 250 or 2500 seconds, at 40 μl/min Fc1 was a reference channel and was subtracted from other flow cells to correct for non-specific binding. […] Kinetic values are based on a 1:1 binding model (Table 5).

[2] = molecular target: T2, recombinant human FcRn (Sino Biological Inc. Cat. No. CT009-H08H) (human, UniProt P55899 24-297; P61769 21-119); assay: competition ELISA, pH 6.0: test IgG4 (from transient HEK per paragraph 152) titrated against fixed biotinylated murine parent antibody on recombinant human FcRn; streptavidin-HRP/TMB, OD450 [top panel]
T2 construct: also called immobilized FcRn
Experimental: (§2) The IgG4 antibodies were tested for antigen binding in a competition ELISA at pH 6.0 and pH 7.4. A Nunc Immuno MaxiSorp 96 well flat bottom microtitre plate (Fisher, cat. no. DIS-971-030J) was pre-coated with 1 μg/ml of an FcRn antibody specific for an IgG-binding epitope distinct from the albumin-binding region overnight at pH 7.4. The following day, 1 μg/ml recombinant human FcRn (Sino Biological Inc. cat. no. CT009-H08H) diluted in PBS pH 7.4 was added to the wells and incubated for 1 hour at 37° C. After washing the plates 3× with PBST pH 7.4, the plates were blocked with PBSM pH 7.4 for 1 hour at 37° C. From this point onwards, all wash and incubation steps were performed at the chosen assay pH (pH 6.0 or 7.4). […] The reaction was stopped with 3 M HCl, absorbance read at 450 nm on a Dynex Technologies MRX TC II plate reader and the binding curves plotted.
(§3) NS0 produced humanized affinity matured IgGs were used in all assays other than G50_C10/Vκ3), which was purified from transiently expressing HEK cells.

[3] = molecular target: T1, FcRn (analyte in the Biacore T200 study); assay: SPR Biacore T200, antibody amine-coupled to CM5, FcRn analyte, 1:1 model; chip with the three best variants (repeat run, dissociation 4500 s per paragraph 156); pH not stated
Experimental: as §1

[4] = molecular target: T3, monomeric His-tagged hFcRn (human, UniProt P55899 24-297; P61769 21-119, limits assumed); assay: SPR Biacore 3000, antibody amine-coupled to CM5, His-tagged hFcRn analyte, pH 6.0, 25 C, 1:1 Langmuir; pH 6.0
T3 construct: also called human FcRn; not shown: His tag
Experimental: (§4) The coupling was performed by injecting 2 μg/ml of each protein into 10 mM sodium acetate, pH 4.5 (GE Healthcare), using the amine coupling kit (GE Healthcare). HBS-P buffer pH 7.4 (0.01 M HEPES, 0.15 M NaCl, 0.005% surfactant P20) or phosphate buffer pH 6.0 (67 mM phosphate buffer, 0.15 M NaCl, 0.005% Tween 20) were used as running buffer and dilution buffer. […] All SPR experiments were conducted at 25° C. with a flow rate of 40 μl/min Binding data were zero-adjusted, and the reference cell value subtracted. The Langmuir 1:1 ligand binding model provided by the BIAevaluation software (version 4.1) was used to determine the binding kinetics. The closeness of the fit is described by the statistical value χ².
(§5) The kinetic rate constants were obtained using a simple first-order (1:1) Langmuir bimolecular interaction model. The kinetic values represent the average of duplicates. The χ² (chi-square) values represent the fit to the binding model used.

[5] = molecular target: T2, recombinant human FcRn (Sino Biological …); assay: competition ELISA, pH 7.4; competitor biotinylated parent murine antibody; captured recombinant human FcRn; HEK-expressed IgG4
Experimental: as §2

[6] = molecular target: T1, FcRn (analyte in the Biacore T200 study); assay: SPR Biacore T200, antibody immobilized, FcRn analyte
Experimental: as §1

[7] = molecular target: T2, recombinant human FcRn (Sino Biological …); assay: competition ELISA, pH 7.4; competitor biotinylated parent murine antibody; captured recombinant human FcRn; HEK-expressed IgG4; remark: listed apart in the source
Experimental: as §2, §3

[8] = molecular target: T2, recombinant human FcRn (Sino Biological …); assay: competition ELISA, pH 6.0; competitor biotinylated parent murine antibody; captured recombinant human FcRn; HEK-expressed IgG4
Experimental: as §2

[9] = molecular target: T2, recombinant human FcRn (Sino Biological …); assay: as above; remark: listed apart in the source
Experimental: as §2, §3

[10] = molecular target: T3, monomeric His-tagged hFcRn; assay: SPR Biacore 3000, antibody amine-coupled to CM5, His-tagged hFcRn analyte, pH 6.0, 25 C, 1:1 Langmuir
Experimental: as §4

[11] = molecular target: T2, recombinant human FcRn (Sino Biological …); assay: competition ELISA, pH 7.4: test IgG4 (from transient HEK per paragraph 152) titrated against fixed biotinylated murine parent antibody on recombinant human FcRn; streptavidin-HRP/TMB, OD450 [top panel]
Experimental: as §2, §3

[12] = molecular target: T3, monomeric His-tagged hFcRn; assay: SPR Biacore 3000, antibody amine-coupled to CM5, His-tagged hFcRn analyte, pH 7.4, 25 C, 1:1 Langmuir; pH 7.4
Experimental: as §4, §5

[13] = molecular target: T3, monomeric His-tagged hFcRn; assay: SPR Biacore 3000, antibody amine-coupled to CM5, His-tagged hFcRn analyte, pH 7.4, 25 C, 1:1 Langmuir
Experimental: as §4, §5

koff [1]: ≤ 1e-05 s⁻¹ and 2.34e-05 s⁻¹
kon [1]: 399000 M⁻¹ s⁻¹ and 298000 M⁻¹ s⁻¹
IC50 (read off the curve) [2]: ~0.5 µg/mL
Kd [3]: 0.054 nM
koff [3]: 1.54e-05 s⁻¹
kon [3]: 283000 M⁻¹ s⁻¹
kon [4]: 110000 M⁻¹ s⁻¹
Average relative IC50 (relative to humanized parent) [5]: 0.7
fold improvement in affinity compared to the humanized parental, on average [6]: 50 fold
Average relative IC50 (relative to humanized parent) [7]: 0.54
Average relative IC50 (relative to humanized parent) [8]: 0.9
Average relative IC50 (relative to humanized parent) [9]: 0.89
Kd [10]: 0.4 nM
koff [10]: 4.7e-05 s⁻¹
IC50 (read off the curve) [11]: ~0.4 µg/mL
koff [12]: 8e-08 s⁻¹
Kd [13]: 0.00066 nM
kon [13]: 120000 M⁻¹ s⁻¹
B1: G50_C10/Vκ3 (antibody, V domains shown)
VH: EVQLVESGGGLVKPGGSLKLSCAASGFTFSDYGMHWVRQAPGKGLEWVAYISSGSSTIYYADTVKGRFTISRDNAKNTLYLQMNSLRAEDTAMYYCARLESTTAVGDYWGQGTSVTVSS
VL: DIVMTQSPDSLSASVGDRVTITCKASQSVSNDVAWYQQKPGQPPKLLIYYASNRYTGVPDRFSGSGYGTDFTLTISSLQAEDVAVYFCQQDYSSLTFGQGTKLEIK
notes: Bivalent IgG4 with S241P, human kappa; also called SYNT002-16; G50_C10/Vκ3 (HEK)
